In PMC7020754:

T1: Rv0023 (XRE family transcription regulator) (Mycobacterium tuberculosis, UniProt P9WMI3 1-256)
T1 sequence: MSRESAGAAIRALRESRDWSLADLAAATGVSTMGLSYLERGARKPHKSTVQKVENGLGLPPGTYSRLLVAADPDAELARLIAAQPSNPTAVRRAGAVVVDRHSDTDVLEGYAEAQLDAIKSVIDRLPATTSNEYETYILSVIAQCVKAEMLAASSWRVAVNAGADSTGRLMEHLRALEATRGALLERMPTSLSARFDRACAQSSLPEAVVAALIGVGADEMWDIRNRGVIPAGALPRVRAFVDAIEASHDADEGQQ


Target: T1, Rv0023 (XRE family transcription …)
Experiment: EMSA; 8 pmol protein
Settings: protein: recombinant, tags: His (implied by Ni-NTA purification; pET23a, also printed pET21b), chain copies: 2, label: 32P

Binder	binding result (blunt)	binding result
OL5 (dsDNA) DNA 1: ATTCTCTTGCAGAGCCCGCCACAGACATATACGCTTTTGC DNA 2: GCAAAAGCGTATATGTCTGTGGCGGGCTCTGCAAGAGAAT	no binding	–
OL3 (dsDNA) DNA 1: AGAGCCCGCCACAGACATATACGCTTTTGCCTATGTTTCG DNA 2: CGAAACATAGGCAAAAGCGTATATGTCTGTGGCGGGCTCT	binds	–
F6 (dsDNA) DNA 1: GCTCAGGCCCATGGTGCTTACGCCAGTGGCGGCCGCCAGGTCCGCGAGGGACCAGTCACG DNA 2: CGTGACTGGTCCCTCGCGGACCTGGCGGCCGCCACTGGCGTAAGCACCATGGGCCTGAGC	no binding	–
OL1 (dsDNA) DNA 1: CACCCCTTATGTATATACGTTTTTATCGCGATTCTCTTGC DNA 2: GCAAGAGAATCGCGATAAAAACGTATATACATAAGGGGTG	binds	–
F2 (dsDNA) DNA 1: CACCCCTTATGTATATACGTTTTTATCGCGATTCTCTTGCAGAGCCCGCCACAGACATAT DNA 2: ATATGTCTGTGGCGGGCTCTGCAAGAGAATCGCGATAAAAACGTATATACATAAGGGGTG	binds	–
OL2 (dsDNA) DNA 1: TTTTATCGCGATTCTCTTGCAGAGCCCGCCACAGACATAT DNA 2: ATATGTCTGTGGCGGGCTCTGCAAGAGAATCGCGATAAAA	no binding	–
F4 (dsDNA) DNA 1: TGGCCGCGCCGGCCGACTCACGGCTCACCGCACGCTCCGGCCATAAGCCGGATACTACCC DNA 2: GGGTAGTATCCGGCTTATGGCCGGAGCGTGCGGTGAGCCGTGAGTCGGCCGGCGCGGCCA	no binding	–
F3 (dsDNA) DNA 1: CCATAAGCCGGATACTACCCGGATACGACTCGGCCGCGGCCACCCCTTATGTATATACGT DNA 2: ACGTATATACATAAGGGGTGGCCGCGGCCGAGTCGTATCCGGGTAGTATCCGGCTTATGG	no binding	–
M0 (dsDNA) DNA 1: AGAGCCCGCCACAGACATATACGCTTTTGCCTATGTTTC DNA 2: GAAACATAGGCAAAAGCGTATATGTCTGTGGCGGGCTCT	–	binds
M9 (dsDNA) DNA 1: AGAGCCCGCCACAGACATATACTCTTTTGCCTATGTTTC DNA 2: GAAACATAGGCAAAAGAGTATATGTCTGTGGCGGGCTCT	–	binds
M5 (dsDNA) DNA 1: AGAGCCCGCCACAGACATATACGCGTTTGCCTATGTTTC DNA 2: GAAACATAGGCAAACGCGTATATGTCTGTGGCGGGCTCT	–	binds
M10 (dsDNA) DNA 1: AGAGCCCGCCACAGACATATATGCTTTTGCCTATGTTTC DNA 2: GAAACATAGGCAAAAGCATATATGTCTGTGGCGGGCTCT	–	binds
M1 (dsDNA) DNA 1: AGAGCCCGCCACAGACAGATACGCTTTTGCCTATGTTTC DNA 2: GAAACATAGGCAAAAGCGTATCTGTCTGTGGCGGGCTCT	–	binds
M4 (dsDNA) DNA 1: AGAGCCCGCCACAGACATATGCGCTTTTGCCTATGTTTC DNA 2: GAAACATAGGCAAAAGCGCATATGTCTGTGGCGGGCTCT	–	binds
F5 (dsDNA) DNA 1: TCCGCGAGGGACCAGTCACGCGACTCGCGAAGTGCGCGAATGGCCGCGCCGGCCGACTCA DNA 2: TGAGTCGGCCGGCGCGGCCATTCGCGCACTTCGCGAGTCGCGTGACTGGTCCCTCGCGGA	no binding	–
OL4 (dsDNA) DNA 1: ACGCTTTTGCCTATGTTTCGTTCAACAAGGAGGCCGGCAC DNA 2: GTGCCGGCCTCCTTGTTGAACGAAACATAGGCAAAAGCGT	no binding	–
F1 (dsDNA) DNA 1: AGAGCCCGCCACAGACATATACGCTTTTGCCTATGTTTCGTTCAACAAGGAGGCCGGCAC DNA 2: GTGCCGGCCTCCTTGTTGAACGAAACATAGGCAAAAGCGTATATGTCTGTGGCGGGCTCT	binds	–
